# According to patent US20180162928A1 (Janssen / Centocor, published 2018):
# Changes are numbered by the printed parent chain.
# B1: ISOP121BR5P1H6 (designed binder, not shown: small tags and cut ends)
# chain: LPAPKNLVVSRVTEDSARLSWGYIDVSYFDSFLIQYQESEKVGEAIVLTVPGSERSYDLTGLKPGTEYTVSIYGVYSRPKAEFTSNPLSAIFTT
# notes: FN3 domain; E. coli lysate in the ELISA
# B2: ISOP121AR5P1F7 (designed binder, not shown: small tags and cut ends)
# chain: LPAPKNLVVSRVTEDSARLSWQEHWDTSSNFDSFLIQYQESEKVGEAIVLTVPGSERSYDLTGLKPGTEYTISIYGVYNRKVLFYSNPLSAIFTT
# notes: as for B1
# B3: ISOP121HR5P1H2 (designed binder, not shown: small tags and cut ends)
# chain: LPAPKNLVVSRVTEDSARLSWTAPDAAFDSFDIYYLEYDYSGEAIVLTVPGSERSYDLTGLKPGTEYDVLIIGVKGGSLSTPLSAIFTT
# notes: as for B1
# B4: ISOP121BR5P1C3 (designed binder, not shown: small tags and cut ends)
# chain: LPAPKNLVVSRVTEDSARLSWASARDYFDSFLIQYQESEKVGEAIVLTVPGSERSYDLTGLKPGTEYTVSIYGVLAIAQITHWFSNPLSAIFTT
# notes: as for B1
# B5: ISOP121BR5P1D3 (designed binder, not shown: small tags and cut ends)
# chain: LPAPKNLVVSRVTEDSARLSWYEDNTERFDSFLIQYQESEKVGEAIVLTVPGSERSYDLTGLKPGTEYTVSIYGVYIRVQVLWFSNPLSAIFTT
# notes: as for B1
# B6: ISOP194BR9P1D10 (designed binder, not shown: small tags and cut ends)
# chain: B5 chain with G43V
# notes: as for B1
# B7: ISOP121BR5P1F7 (designed binder, not shown: small tags and cut ends)
# chain: LPAPKNLVVSRVTEDSARLSWHDATWQYFDSFLIQYQESEKVGEAIVLTVPGSERSYDLTGLKPGTEYTVSIYGVFHRKHIDFVSNPLSAIFTT
# notes: as for B1
# B8: ISOP121AR5P1G10 (designed binder, not shown: small tags and cut ends)
# chain: LPAPKNLVVSRVTEDSARLSWEWLEHFDSFLIQYQESEKVGEAIVLTVPGSERSYDLTGLKPGTEYTVSIYGVYQRKVEFHSNPLSAIFTTT
# notes: as for B1
# B9: ISOP121AR5P1F9 (designed binder, not shown: small tags and cut ends)
# chain: LPAPKNLVVSRVTEDSARLSWGWSELIATHFDSFLIQYQESEKVGEAIVLTVPGSERSYDLTGLKPGTEYTVSIYGVYNRKVNFYSNPLSAIFTT
# notes: as for B1
# B10: ISOP121AR5P1F2 (designed binder, not shown: small tags and cut ends)
# chain: B9 chain with V9I
# notes: as for B1
# B11: ISOP194AR9P1H1 (designed binder, not shown: small tags and cut ends)
# chain: B9 chain with G22W, W23R, S24V, E25L, L26G, I27H, A28S, T29H, H30F
# notes: as for B1
# B12: ISOP121BR5P1B7 (designed binder, not shown: small tags and cut ends)
# chain: LPAPKNLVVSRITEDSARLSWKWEEGFFDSFLIQYQESEKVGEAIVLTVPGSERSYDLTGLKPGTEYTVSIYGVYQRHASAFVSNPLSAIFTT
# notes: as for B1
# B13: ISOP121BR5P1D1 (designed binder, not shown: small tags and cut ends)
# chain: B12 chain with I12V, E24G, E25G, G26E, H78N, A79W, S80H, A81H, F82W, V83Y
# notes: as for B1
# B14: ISOP121BR5P1A6 (designed binder, not shown: small tags and cut ends)
# chain: LPAPKNLVVSRVTEDSARLSWASWLVAFFDSFLIQYQESEKVGEAIVLTVPGSERSYDLTGLKPGTEYTVSIYGVYQRHASAFVSNPLSAIFTT
# notes: as for B1
# B15: ISOP121BR5P1E9 (designed binder, not shown: small tags and cut ends)
# chain: LPAPKNLVVSRVTEDSARLSWDSYRDYFDSFLIQYQESEKVGEAIVLTVPGSERSYDLTGLKPGTEYTVSIYGVYSRKHVVFVQSNPLSAIFTT
# notes: as for B1
# B16: ISOP121FR5P1G1 (designed binder, not shown: small tags and cut ends)
# chain: LPAPKNLVVSRVTEDSARLSWTAPDAAFDSFWIHYTEAPVHGEAIVLTVPGSERSYDLTGLKPGTEYTVVIWGVKGGTWSSPLSAIFTT
# notes: as for B1
# B17: ISOP121GR5P1F6 (designed binder, not shown: small tags and cut ends)
# chain: LPAPKNLVVSRVTEDSARLSWTAPDAAFDSFDIRYHEYTWPGEAIVLLVPGSERSYDLTGLKPGTEYGVYINGVKGGFRSKPLFAWFTTGG
# notes: as for B1
# B18: ISOP121AR5P1H5 (designed binder, not shown: small tags and cut ends)
# chain: LPAPKNLVVSRVTEDSARLSWEDAVKHIWFDSFLIQYQESEKVGEAIVLTVPGSERSYDLTGLKPGTEYTVSIYGVWIASVWRSNPLSAIFTT
# notes: as for B1
# B19: ISOP121FR5P1G11 (designed binder, not shown: small tags and cut ends)
# chain: LPAPKNLVVSRVTEDSARLSWTAPDAAFDSFSIWYLEIVAHGEAIVLTVPGSERSYDLTGLKPGTEYEVIIHGVKGCGPSGPLSAIFTT
# notes: as for B1
# B20: ISOP121BR5P1E2 (designed binder, not shown: small tags and cut ends)
# chain: LPAPKNLVVSRVTEDSARLSWWFPLEWFDSFLIQYQESEKVGEAIVLTVPGSERSYDLTGLKPGTEYTVSIYGVYTREHKSVWASNPLSAIFTT
# notes: as for B1
# B21: ISOP121GR5P1G11 (designed binder, not shown: small tags and cut ends)
# chain: LPAPKNLVVSRVTEDSARLSWTAPDAAFDSFQINYHEYGQNGEAIQLIVPGSERSYDLTGLKPGTEYGVWIWGVKGGIRSKPLWAFFTT
# notes: as for B1
# B22: ISOP194GR9P1F6 (designed binder, not shown: small tags and cut ends)
# chain: LPAPKNLVVSRVTEDSARLSWTAPDAAFDSFWIDYWERLSEGEAIALRVPGSERSYDLTGLKPGTEYYVWIVGVKGGKFSQPLRAWFTT
# notes: as for B1
# B23: ISOP194GR9P1F9 (designed binder, not shown: small tags and cut ends)
# chain: LPAPKNLVVSRVTEDSARLSWTAPDAAFDSFWIFYNERWQNGEAIRLIVPGSERSYDLTGLKPGTEYSVIIPGVKGGRNSFPLWAWFTT
# notes: as for B1
# B24: ISOP121GR5P1A2 (designed binder, not shown: small tags and cut ends)
# chain: B23 chain with W32K, F34Q, N36I, W39Y, Q40I, N41P, R46Q, I48N
# notes: as for B1
# B25: ISOP121BR5P1G2 (designed binder, not shown: small tags and cut ends)
# chain: LPAPKNLVVSRVTEDSARLSWADELHHANHFDSFLIQYQESEKVGEAIVLTVPGSERSYDLTGLKPGTEYTVSIYGVYDRHYEIHFYSNPLSAIFTT
# notes: as for B1
# B26: ISOP121AR5P1F3 (designed binder, not shown: small tags and cut ends)
# chain: LPAPKNLVVSRVTEDSARLSWPFNNYSEHFDSFLIQYQESEKVGEAIVLTVPGSERSYDLTGLKPGTEYTVSIYGVYERKTAFYSNPLSAIFTT
# notes: as for B1
# B27: ISOP194AR9P1D11 (designed binder, not shown: small tags and cut ends)
# chain: LPAPKNLVVSRVTEDSGRLSWQHHISFFDSFLIQYQESEKVGEAIVLTVPGSERSYDLTGLKPGTEYTVSIYGVYNRKVNFYSNPLSAIFTT
# notes: as for B1
# B28: ISOP194ER9P1E6 (designed binder, not shown: small tags and cut ends)
# chain: LPAPKNLVVSRVTEDSARLSWTAPDAAFDSFWIKYYEKRNPGEAIVLTVPGSERSYDLTGLKPGTEYLVIISGVKGGSRSVPLSAIFTT
# notes: as for B1
# B29: ISOP121AR5P1E7 (designed binder, not shown: small tags and cut ends)
# chain: LPAPKNLVVSRVTEDSARLSWHVYHEIDYFDSFLIQYQESEKVGEAIVLTVPGSERSYDLTGLKPGTEYTVSIYGVYQRKVEFYSNPLSAIFTT
# notes: as for B1
# B30: ISOP121BR5P1C9 (designed binder, not shown: small tags and cut ends)
# chain: LPAPKNLVVSRVTEDSARLSWIWPDKHEFFDSFLIQYQESEKVGEAIVLTVPGSERSYDLTGLKPGTEYTVSIYGVYDRKYANWSSNPLSAIFTT
# notes: as for B1
# B31: ISOP194HR9P1B10 (designed binder, not shown: small tags and cut ends)
# chain: LPAPKNLVVSRVTEDSARLSWTAPDAAFDSFPIRYYERANGEAIVLTVPGSERSYDLTGLKPGTEYIVWIYGVKGGGRSGPLSAIFTT
# notes: as for B1
# Biological target: human serum albumin (human) (UniProt P02768)
# Sequence (P02768 25-609 limits assumed): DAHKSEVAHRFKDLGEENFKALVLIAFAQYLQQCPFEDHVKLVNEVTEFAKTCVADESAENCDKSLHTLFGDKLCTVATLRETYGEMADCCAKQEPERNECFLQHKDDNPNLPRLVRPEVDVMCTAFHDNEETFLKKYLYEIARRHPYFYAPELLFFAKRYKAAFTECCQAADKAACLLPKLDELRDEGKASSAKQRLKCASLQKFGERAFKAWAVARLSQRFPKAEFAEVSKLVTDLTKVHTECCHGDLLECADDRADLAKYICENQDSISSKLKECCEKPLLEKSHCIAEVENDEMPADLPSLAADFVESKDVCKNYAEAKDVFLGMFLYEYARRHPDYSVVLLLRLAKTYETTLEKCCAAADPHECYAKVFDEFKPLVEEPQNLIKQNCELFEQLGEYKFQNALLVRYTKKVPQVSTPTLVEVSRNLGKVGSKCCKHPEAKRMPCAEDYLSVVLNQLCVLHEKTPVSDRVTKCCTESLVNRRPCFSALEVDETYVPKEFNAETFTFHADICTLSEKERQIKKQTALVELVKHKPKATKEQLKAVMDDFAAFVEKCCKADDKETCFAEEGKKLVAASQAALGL
# Assay: ELISA, lysate on plate-bound antigen
row,ELISA HSA (RSU),Binder
1,1040,B1
2,1040,B2
3,560,B3
4,480,B4
5,800,B5
6,1120,B6
7,880,B7
8,1280,B8
9,1040,B9
10,960,B10
11,6800,B11
12,480,B12
13,960,B13
14,720,B14
15,800,B15
16,400,B16

row,ELISA HSA (RSU),Binder
1,640,B17
2,1120,B18
3,480,B19
4,720,B20
5,1040,B21
6,1200,B22
7,800,B23
8,720,B24
9,560,B25
10,960,B26
11,12700,B27
12,720,B28
13,6560,B29
14,1040,B30
15,1840,B31

# Biological target: unrelated Fc-fused recombinant protein
# Assay: ELISA, lysate on plate-bound antigen
row,ELISA Fc Control (RSU),Binder
1,1440,B1
2,720,B2
3,720,B3
4,640,B4
5,800,B5
6,720,B6
7,720,B7
8,1360,B8
9,1120,B9
10,880,B10
11,15700,B11
12,640,B12
13,1040,B13
14,720,B14
15,960,B15
16,640,B16

row,ELISA Fc Control (RSU),Binder
1,640,B17
2,960,B18
3,880,B19
4,800,B20
5,960,B21
6,400,B22
7,320,B23
8,720,B24
9,800,B25
10,800,B26
11,28200,B27
12,240,B28
13,4240,B29
14,1120,B30
15,560,B31

# Biological target: T1, recombinant biotinylated PD-L1 (rhPD-L1/Fc Chimera, R&D Systems 156-B7) (human, UniProt Q9NZQ7 19-238, biotinylated (sites not given))
# T1 construct: Bought Fc chimera; also called human PD-L1
# T1 sequence (Q9NZQ7 19-238, change not shown): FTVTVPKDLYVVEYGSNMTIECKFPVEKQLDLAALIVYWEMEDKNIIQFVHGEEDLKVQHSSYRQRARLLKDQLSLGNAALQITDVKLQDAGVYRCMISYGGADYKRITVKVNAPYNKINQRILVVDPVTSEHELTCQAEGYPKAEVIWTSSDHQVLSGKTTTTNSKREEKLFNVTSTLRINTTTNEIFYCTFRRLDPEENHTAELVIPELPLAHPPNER
# Assay: ELISA, lysate on plate-bound antigen
# Method in brief: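 On streptavidin plates coated with biotinylated PD-L1 (unrelated Fc-fusion protein and HSA as negative controls), diluted lysate was applied for 1 h. Bound FN3 domains detected with HRP-conjugated anti-FN3 antibody and POD substrate.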
row,ELISA PD-L1 Fc (RSU),Binder
1,74600,B1
2,64000,B2
3,21000,B3
4,177000,B4
5,75800,B5
6,1.67e+06,B6
7,12900,B7
8,232000,B8
9,136000,B9
10,51000,B10
11,2.14e+07,B11
12,11400,B12
13,186000,B13
14,11000,B14
15,42000,B15
16,10000,B16

row,ELISA PD-L1 Fc (RSU),Binder
1,32100,B17
2,171000,B18
3,18600,B19
4,137000,B20
5,240000,B21
6,319000,B22
7,105000,B23
8,61700,B24
9,16700,B25
10,180000,B26
11,1.04e+06,B27
12,8.98e+06,B28
13,327000,B29
14,226000,B30
15,385000,B31
